Key:
C3b [1] = biological target: C3b (UniProt P01024); experiment: cell-based or functional assay
C3b [2] = biological target: C3b (UniProt P01024); experiment: SPR (Biacore), FH flowed over C3b amine-coupled to a CM5 chip; steady-state fit to two flow cells (1540 and 3030 RU C3b) together

C3b, sequence (P01024 749-1663 limits assumed, chain 1 of 2): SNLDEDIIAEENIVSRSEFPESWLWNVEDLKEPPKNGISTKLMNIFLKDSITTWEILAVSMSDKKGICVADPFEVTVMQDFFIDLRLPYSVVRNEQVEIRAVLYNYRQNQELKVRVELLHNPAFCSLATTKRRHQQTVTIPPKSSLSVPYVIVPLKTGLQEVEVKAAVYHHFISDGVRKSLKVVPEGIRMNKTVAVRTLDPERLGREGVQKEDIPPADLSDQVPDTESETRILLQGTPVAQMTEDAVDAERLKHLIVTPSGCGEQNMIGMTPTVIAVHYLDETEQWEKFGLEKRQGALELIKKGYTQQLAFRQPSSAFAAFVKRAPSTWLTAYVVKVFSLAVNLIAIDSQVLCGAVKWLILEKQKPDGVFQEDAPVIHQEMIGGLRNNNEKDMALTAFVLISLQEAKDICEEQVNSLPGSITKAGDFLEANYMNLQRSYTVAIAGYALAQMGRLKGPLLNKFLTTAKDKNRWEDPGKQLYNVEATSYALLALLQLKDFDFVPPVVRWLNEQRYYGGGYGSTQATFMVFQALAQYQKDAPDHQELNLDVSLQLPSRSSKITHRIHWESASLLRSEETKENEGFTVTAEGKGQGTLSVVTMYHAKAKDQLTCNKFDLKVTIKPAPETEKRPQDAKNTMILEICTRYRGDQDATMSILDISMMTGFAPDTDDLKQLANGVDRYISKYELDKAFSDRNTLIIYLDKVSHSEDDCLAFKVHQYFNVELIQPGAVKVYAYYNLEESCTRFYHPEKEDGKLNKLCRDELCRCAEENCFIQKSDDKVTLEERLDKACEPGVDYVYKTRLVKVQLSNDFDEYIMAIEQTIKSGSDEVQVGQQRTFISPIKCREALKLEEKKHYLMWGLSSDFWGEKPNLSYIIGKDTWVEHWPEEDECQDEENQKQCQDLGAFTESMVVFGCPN
C3b, sequence (P01024 23-667 limits assumed, chain 2 of 2): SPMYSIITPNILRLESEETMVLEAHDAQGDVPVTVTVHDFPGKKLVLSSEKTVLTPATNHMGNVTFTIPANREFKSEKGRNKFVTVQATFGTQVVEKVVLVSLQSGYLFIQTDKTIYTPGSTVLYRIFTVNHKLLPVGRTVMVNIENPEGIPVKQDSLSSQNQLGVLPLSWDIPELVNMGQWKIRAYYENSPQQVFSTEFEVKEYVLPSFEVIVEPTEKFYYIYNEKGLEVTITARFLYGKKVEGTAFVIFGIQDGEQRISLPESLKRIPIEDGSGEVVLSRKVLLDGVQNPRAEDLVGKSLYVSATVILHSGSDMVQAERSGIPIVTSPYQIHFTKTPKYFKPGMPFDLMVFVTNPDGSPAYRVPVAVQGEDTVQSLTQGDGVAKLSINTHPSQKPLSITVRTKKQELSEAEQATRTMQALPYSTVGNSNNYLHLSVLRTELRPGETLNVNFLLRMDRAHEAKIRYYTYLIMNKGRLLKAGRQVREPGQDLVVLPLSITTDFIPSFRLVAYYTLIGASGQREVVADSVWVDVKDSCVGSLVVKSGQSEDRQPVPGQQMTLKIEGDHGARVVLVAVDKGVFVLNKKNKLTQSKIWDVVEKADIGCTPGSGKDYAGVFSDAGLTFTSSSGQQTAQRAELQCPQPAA

cofactor for factor I-catalysed cleavage of C3b to iC3b (SDS-PAGE, Coomassie blue) (C3b [1]): < 5 min
Kd (C3b [2]): 1.4 µM
Substance: recombinant human complement factor H produced in Pichia pastoris from codon-optimised DNA (Example 2) (from UniProt P08603 19-1231)

— patent US20170335310A1
